{"source": "patent US20200040082A1", "about": "(Seagen, published 2020)", "binders": {"B1": {"name": "Clone 13 (antibody, human IgG1, V domains shown)", "VH": "QVQLVQSGAEVKKPGSSVKVSCKASGGTFSSYAISWVRQAPGQGLEWMGSIIPIFGTANYAQKFQGRVTITADESTSTAYMELSSLRSEDTAVYYCARGPSEVGAILGYVWFDPWGQGTLVTVSS", "VL": "not shown", "notes": "Fully human IgG1 ('c13 hIgG1'); also called anti-TIGIT clone 13; c13 hIgG1"}, "B2": {"name": "mouse IgG2a chimera of anti-TIGIT clone 13 (antibody, V domains shown)", "VH": "B1 VH", "VL": "not shown", "notes": "also called c13 mIgG2a"}, "B3": {"name": "Clone 13D (antibody, V domains shown)", "VH": "B1 VH with S30L, Y32S, I54Y, T57K, G104K, A105G", "VL": "not shown", "notes": "IgG"}, "B4": {"name": "Clone 25 (antibody, V domains shown)", "VH": "QVQLVQSGAEVKKPGASVKVSCKASGYTFTSYAISWVRQAPGQGLEWMGWISAYNGNTNYAQKLQGRVTMTTDTSTSTAYMELRSLRSDDTAVYYCARDLSSFWSGDVLGAFDIWGQGTMVTVSS", "VL": "DIQMTQSPSSLSASVGDRVTITCRASQSISSYLNWYQQKPGKAPKLLIYAASSLQSGVPSRFSGSGSGTDFTLTISSLQPEDFATYYCQQSVPPRTFGGGTKVEIK", "notes": "Fully human IgG from a yeast presentation system; also called anti-TIGIT clone 25"}}, "key": {"[1]": {"biological_target": "T1, human TIGIT (T-cell immunoreceptor with Ig and ITIM domains) (human, UniProt Q495A1 22-244)", "T1 construct": "also called hTIGIT", "T1 sequence": "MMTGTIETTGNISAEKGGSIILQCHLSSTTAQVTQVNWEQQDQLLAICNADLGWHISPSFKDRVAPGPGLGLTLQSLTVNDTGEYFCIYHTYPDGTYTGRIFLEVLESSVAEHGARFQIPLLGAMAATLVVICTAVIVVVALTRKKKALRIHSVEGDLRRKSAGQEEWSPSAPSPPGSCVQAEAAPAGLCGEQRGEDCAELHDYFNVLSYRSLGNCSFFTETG", "test": "competition flow cytometry against hCD112-Fc-AlexaFluor647 on 293-hTIGIT cells"}, "[2]": {"biological_target": "T1, human TIGIT (T-cell immunoreceptor with …)", "test": "competition flow cytometry against 1 ug/mL hCD155-Fc-AlexaFluor647 on 293-hTIGIT cells", "method": "Samples were analyzed on a CytoFLEX flow cytometer. Median fluorescence intensity of the FSC/SSC gated population was determined for each antibody concentration. Percent blockade was calculated relative to the MFI of the no antibody control. NonLinear regression of Log(X) transformed data was performed in GraphPad Prism 6."}, "[3]": {"biological_target": "T1, human TIGIT (T-cell immunoreceptor with …)", "test": "flow cytometry titration on HEK 293 cells expressing human TIGIT"}, "[4]": {"biological_target": "T2, cynomolgus monkey TIGIT (cynomolgus monkey)", "T2 construct": "On HEK 293 cells (lentiviral transduction) and on cynomolgus peripheral blood T cells; also called cyno TIGIT", "T2 sequence (chain, as listed by the source limits assumed)": "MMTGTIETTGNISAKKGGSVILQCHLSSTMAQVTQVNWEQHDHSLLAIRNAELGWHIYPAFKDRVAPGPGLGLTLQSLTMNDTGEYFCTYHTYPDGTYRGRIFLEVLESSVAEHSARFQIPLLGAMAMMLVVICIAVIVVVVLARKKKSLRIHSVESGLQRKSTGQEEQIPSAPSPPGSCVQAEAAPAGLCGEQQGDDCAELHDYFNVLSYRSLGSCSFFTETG", "test": "flow cytometry, MFI on cyno TIGIT HEK 293 cells over parental HEK 293 cells", "method": "(§1) HEK 293 cells were engineered to stably express high levels of human, mouse or cynomolgus monkey TIGIT by lentiviral transduction. […] Cells were then washed twice with wash buffer and incubated with anti-human IgG conjugated to PE for 15 minutes on ice. Cells were then washed twice with wash buffer and analyzed by flow cytometry on a FACS Canto II instrument (BD Biosciences). Fold over background (FOB) was calculated as the median fluorescence intensity (MFI) of the anti-TIGIT clone bound to target-positive cells divided by the MFI of the anti-TIGIT clone bound to target-negative cells."}, "[5]": {"biological_target": "T1, human TIGIT (T-cell immunoreceptor with …)", "test": "flow cytometry, MFI on human TIGIT HEK 293 cells over parental HEK 293 cells", "method": "as §1"}, "[6]": {"biological_target": "T3, discontinuous epitope mimic CILQ2HLSSTTAQVTQCI2NADLGWHISPSFKC (Cys-acetamidomethyl (Cys-acm, printed as '2') at positions 5 and 19; Cys at positions 1, 17 and 33 used for the T3 CLIPS scaffold (as for Set 8))", "T3 peptide": "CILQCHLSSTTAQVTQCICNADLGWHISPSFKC", "test": "Pepscan-based peptide array ELISA, discontinuous epitope mimics", "method": "(§2) The binding of antibody to each of the synthesized peptides was tested in a pepscan-based ELISA. The peptide arrays were incubated with primary antibody solution (overnight at 4° C.). After washing, the peptide arrays were incubated with a 1/1000 dilution of a goat anti-human HRP conjugate (Southern Biotech) for one hour at 25° C. […] After one hour, the color development was measured. The color development was quantified with a charge coupled device (CCD)—camera and an image processing system."}, "[7]": {"biological_target": "T4, discontinuous epitope mimic CKDRVAPGPGLGLTLQCI2NADLGWHISPSFKC (Cys-acetamidomethyl (Cys-acm, printed as '2') at position 19; Cys at positions 1, 17 and 33 used for the T3 CLIPS scaffold (as for Set 8))", "T4 peptide": "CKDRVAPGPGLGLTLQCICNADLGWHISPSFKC", "test": "Pepscan-based peptide array ELISA, discontinuous epitope mimics", "method": "as §2"}}, "note": "Where a chain is given by its changes, count along the chain named."}
{"binder": "B1", "values": [{"measurement": "IC50 (read off the curve)", "setting": "[1]", "value": "~0.09", "unit": "µg/mL"}, {"measurement": "IC50 (read off the curve)", "setting": "[2]", "value": "~0.2", "unit": "µg/mL"}]}
{"binder": "B2", "values": [{"measurement": "EC50", "setting": "[3]", "value": 0.04, "unit": "µg/mL"}, {"measurement": "IC50 (read off the curve)", "setting": "[1]", "value": "~0.06", "unit": "µg/mL"}]}
{"binder": "B3", "values": [{"measurement": "FOB (Fold Over Background)", "setting": "[4]", "value": 245, "unit": "fold"}, {"measurement": "FOB (Fold Over Background)", "setting": "[5]", "value": 190, "unit": "fold"}]}
{"binder": "B4", "values": [{"measurement": "binding result", "setting": "[6]", "value": "binds"}, {"measurement": "binding result", "setting": "[7]", "value": "binds"}]}
